These results are taken from doi:10.1101/2022.11.12.516293.

Read-outs that look alike come from different tables or passages of the source.

Experiment in all cases: EMSA
(In EMSA bound probe runs differently from free probe, usually more slowly.)

The target of series [1] is T1, PU.1 (UniProt P17947 1-270).
The target in series [2] is T1, PU.1. The source holds these as a separate data set.
Series [3] addresses T1, PU.1. The source holds these as a separate data set.

B1: rs1320496-T (dsDNA)
DNA 1: CAGGAGGGGAAGTGGGATGCATGAGAAGAGGACGCGTTTC
DNA 2: GAAACGCGTCCTCTTCTCATGCATCCCACTTCCCCTCCTG
As to B1, the binding result with PU.1 [1] is given as “binds”.

B2: rs1412444-T (dsDNA)
DNA 1: CTATTTGCCTTTAAACACTGGAAATAACACCAGTGGC
DNA 2: GCCACTGGTGTTATTTCCAGTGTTTAAAGGCAAATAG
For the molecule B2, the binding result in the series with PU.1 [2] was “binds”.

B3: rs1412445-T (dsDNA)
DNA 1: GGTCATTAGGAGGATGTTGGTGCTATTAATAATAGAG
DNA 2: CTCTATTATTAATAGCACCAACATCCTCCTAATGACC
As for B3, the binding result with PU.1 [3] was “no binding”.
